This is an account of results in the nanobody polyreactivity screen of Harvey et al. (2022).

This series in a line: yeast display, Sf9 membrane polyspecificity reagent, FACS + sequencing; frameworks hold sequencing errors. The method, boiled down: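 Galactose-induced (36–48 hours) yeast carrying a synthetic nanobody display library were exposed to 10% biotinylated, detergent-solubilized Sf9 membrane reagent at 4 °C for 1 hour. FACS followed streptavidin microbead enrichment, using low and high (top ~1%) gates for expression (anti-HA) and reagent binding (streptavidin). Colony PCR, MiSeq 2 × 250 sequencing and CDR-length filtering followed. Labels for polyreactivity reflect the gate of origin.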
“QVQLVESGGGLVQAGGSLRLSCAASGIIFYHNAMGWYRKAPGKERELVATIRSSGDGTYYADSVKGRFTISRDNAKNTVYLQMNSLKPEDTAVYYCAAYWAHSYSYSVSRRYYYWGQGTQVTVSS”: the “polyreactivity (PSR sort gate)” value is on record as “low polyreactivity”.
On to “QVQLVESGGGLVQAGGSLRLSCAASGIIFYHYAMGWYRPAPGKEREFVAAITWDGGNTSYADSVKGRFTISRDYAKNTFYLQMNSLIPEDTAVYYCNTDRGPVKVSPLYESWGQGTQVTVSS”, for which the “polyreactivity (PSR sort gate)” value is on record as “low polyreactivity”.
The value for “QVQLVESGGGLVQAGGSLRLSCAASGIIFYHYAMGWYRQAPGKEREFVAAITWDGGNTYYADSVKGRFTISRDNAKNTVYLQMNSLKPEDTAVYYCNTDRGPVKVSPLYESWGQGTQVTVSS” was “low polyreactivity”.
Then “QVQLVESGGGLVQAGGSLRLSCAASGIIFYIYTMAWYRQAPGKERELVAAINRSGSRTYYADSVKGRFTISRDNAKNTVYLQMNSLKPEDTAVYYCAAGTGSRDDYWGQGTQVTVSS”, with “high polyreactivity”; and “QVQLVESGGGLVQAGGSLRLSCAASGIIFYLYAMGWYRQARGKEWELVAAISRRGVSTYYADSLMGRFTISRDNAKNTVYLQMNSLKPEDTAVYYCAAAGFGYTGEEYWGQGTQVTVSS”, with “high polyreactivity”.
On to “QVQLVESGGGLVQAGGSLRLSCAASGIIFYPNAMGWYRQAPGKERELVAAISWRSGSTYYADSVKGRFTISRDNAKNTVYLQMNSLKPEDTAVYYCAADRRRSYIWRYDYWGQGTQVTVSS”, for which the “polyreactivity (PSR sort gate)” value was “low polyreactivity”.
With “QVQLVESGGGLVQAGGSLRLSCAASGIIFYPYAMGWYRQAPGKERELVAGISWSGGRTYYADSVKGRFTISRDNAKNTVYLQMNSLKPEDTAVYYCAARYRQRAYDYWGQGTQVTVSS”, the “polyreactivity (PSR sort gate)” value is “high polyreactivity”.
The value for “QVQLVESGGGLVQAGGSLRLSCAASGIIFYPYAMGWYRQEPGKERYLVASISSGGDTNYADSVKGRFTISRDNAKNTVYLQMNSLKPEDTAVYYCAARVRVQYWWEYYYWGQGTQVTVSS” was “high polyreactivity”; that for “QVQLVESGGGLVQAGGSLRLSCAASGIIFYQYAMGWYRQAHGKERELVAAISSRGGSTYYADSVKGRFTISLDNAKNTVYLLMNSLKPEDTAVYYCAAGSTGSTDGYWGQGTQVTVSS” was “high polyreactivity”; that for “QVQLVESGGGLVQAGGSLRLSCAASGIIFYRYAMGWYRQAPGKERELVAAINTSGGRTYYADSVKGRFTISRDNAKNTVYLQMNSLKPEDTAVYYCAAYYSPVGFQYDYWGQGTQVTVSS” was “high polyreactivity”.
The value for “QVQLVESGGGLVQAGGSLRLSCAASGIIFYSNAMGWARQAPGKETELVAGISKSGGSTYYADSVKGRFTISRDNAQNTVYLQMHSLKPEDTAVYYCAVRGGGRYRSWGYDYWGQGTQVTVSS” was “high polyreactivity”; that for “QVQLVESGGGLVQAGGSLRLSCAASGIIFYSYAMGWYRQAPGKERELVAAISRRGTSTFYADSVKGRFTISRDNAKNTVYLQMNSLKPEDTAVSYCNARYKYYRGSGMDSWGQGTQVTVSS” was “high polyreactivity”.
The value for “QVQLVESGGGLVQAGGSLRLSCAASGIIFYSYTMGWYRQAPGKERELVAAISRNGGGTYYADSEKGRFTISRDNAKNTVYLQMNSLNPEETAVYYCAAEVDQWYYRGYDYWGQGTQVTVSS” was “high polyreactivity”; that for “QVQLVESGGGLVQAGGSLRLSCAASGIIFYVNAMGWYRQAPGKERELVAAITFGGDSTYYADSVKGRFTISRDNAKNTVYLQMNSLKPEDTAVYYCAADYVALYYWYDYWGQGTQVTVSS” was “low polyreactivity”.
In the case of “QVQLVESGGGLVQAGGSLRLSCAASGIIFYWYAMGWYRQSPGKERELVATITSTGGSTNYADSVKGRFTISRDNAKNTVYLQMNSLKPEDTAVYYCNADRYGIYYYSRLPFDYWGQGTQVTVSS”, the “polyreactivity (PSR sort gate)” value is “low polyreactivity”.
Then “QVQLVESGGGLVQAGGSLRLSCAASGIIFYYYAMGWYRPAPGKERELVAAITSSGVRTYYADSVKGRFTLSRDTAKNTVYLQMNSLKPEDTAVYYCAASVSWPRVSQRARYGYYYWGQGTQVTVSS”, with “high polyreactivity”.
On to “QVQLVESGGGLVQAGGSLRLSCAASGIIFYYYAMGWYRQAPGKERELVAAISWSGDGTYYADSVKGRFTISRDKAKNTVYLQMNSLKPEDTAVYYCAALNDGFTGYDYLDEYTDYGYWGQGTQVTVSS”, for which the “polyreactivity (PSR sort gate)” value is recorded as “low polyreactivity”.
The value for “QVQLVESGGGLVQAGGSLRLSCAASGIIFYYYVMGWYRQAPGKERELVAAISRSGGRTRYADSVKGRFTISRDNAKNTVYLQMNSLKPEDTAVYYCAAVGSVNYDADFDYWGQGTQVTVSS” was “high polyreactivity”.
The value for “QVQLVESGGGLVQAGGSLRLSCAASGIIIDSNAMGWYRQAPGKERELVADITSGGSTKYADSVKGRFTISRDNAKNTVYLQMNSLKPEDTAVYYCNADFRPADQWSYFYEMDSWGQGTQVTVSS” was “low polyreactivity”; that for “QVQLVESGGGLVQAGGSLRLSCAASGIIIDTNAMGWYRQAPGTERELVASISKRGGSTYYADSVKGRFTISRDNAKNTVYLQMNSLKPEDTAVYYCNALRRRQYHDDYWGQGTQVTVSS” was “high polyreactivity”.
For “QVQLVESGGGLVQAGGSLRLSCAASGIIIDYYAMGWYRQAPGKERELVAAITSGGSTSYADSVKGRFTISRDNAKNTVYLQMNSLKPEDTAVYYCNTEPSGYESGYWGQGTQVTVSS”, the “polyreactivity (PSR sort gate)” value is “low polyreactivity”.
On to “QVQLVESGGGLVQAGGSLRLSCAASGIIIDYYTMGWYRQAPGKERELVAAINKSGGSTYADSVKGRFTISRDNAKNTVYLQMKSLKPEDTAVYYCAAEVDYSDWPEYARKYYYWGQGTQVTVSS”, for which the “polyreactivity (PSR sort gate)” value is recorded as “low polyreactivity”.
Then “QVQLVESGGGLVQAGGSLRLSCAASGIIIDYYTMGWYRQAPGKERELVAAINKSGGSTYADSVKGRFTISRDNAKNTVYLQMNSLKPEDTAVYYCAAEVDYSYSPEYARKYYYWGQGTQVTVSS”, with “low polyreactivity”; and “QVQLVESGGGLVQAGGSLRLSCAASGIIIQINAMGWYRQAPGKERELVAAITIDGTTNYADSVKGRFTISRDNAKNTVYLQMNSLKPEDTAVYYCARRRSVYVWEPYQYDYWGQGTQVTVSS”, with “low polyreactivity”.
The value for “QVQLVESGGGLVQAGGSLRLSCAASGIIIRYYGMGWYRQAPGKERELVARIRWTGGSTYYADSVKGRFTISRDNAKNTVYLQMNSLKPEDTAVYYCAAQWKYRQSYLDYYWGQGTQVTVSS” was “low polyreactivity”.
For the sequence “QVQLVESGGGLVQAGGSLRLSCAASGIILGKNAMGWYRQAPGKERELVASITSGAGITYYADSVKGRFTISRDTAKNTVYLQMNSLKPEDTAVYYCNTYPYLWGQGTQVTVSS”, the “polyreactivity (PSR sort gate)” value is “low polyreactivity”.
On to “QVQLVESGGGLVQAGGSLRLSCAASGIILGPYAMGWYRQAPGKERELVAAISWRGGSTYYADSVKGRFTISRDNAKNTVYLQMNSLKPEDTAVYYCATASRTSRTGWAGYYWGQGTQVTVSS”, for which the “polyreactivity (PSR sort gate)” value was “high polyreactivity”.
The value for “QVQLVESGGGLVQAGGSLRLSCAASGIILPYYVMGWYRQAPGKEREFVADITWSGGSTYYADSVKARFTISRDNAKNTVYLQMNSLKPEDTAVYYCAAEGQWYYFFDMDYWGQGTQVTVSS” was “high polyreactivity”; that for “QVQLVESGGGLVQAGGSLRLSCAASGIILREYTMGWYRQAPGKERELVAAISGSGGSTYYADSVKGRFTISRDNAKNTVYLQMNSLKPDDTAVYYCNAVIAAKARDAVVGSGMDYWGQGTQVTVSS” was “high polyreactivity”.
Then “QVQLVESGGGLVQAGGSLRLSCAASGIILSLYAMGWYRQAPGKERELVATIRFSGGSTYYADSVKGRFTISRDNAKNTVYLQMNSLKPEDTAVYYCNKHLATTFTVSRFDYWGQGTQVTVSS”, with “low polyreactivity”; and “QVQLVESGGGLVQAGGSLRLSCAASGIILTEYAMGWYRQAPGKERELVAAINRVGSTNYADSVKGRFTISRDNAKNTVYLQMNSLKPEDTAVYYCAAGTYYNDYDYWGQGTQVTVSS”, with “low polyreactivity”; and “QVQLVESGGGLVQAGGSLRLSCAASGIILVQYVMGWYRQAPGKERELVASISRTGGSTYYADSVKGRFTISRDNAKNTVYLQMNSLKPEDTAVYYCAALAYRYSYPRGYWGQGTQVTVSS”, with “high polyreactivity”.
For the sequence “QVQLVESGGGLVQAGGSLRLSCAASGIILYFYDMGWYRQAPGKERELVAVITGGGGSTYYADSVKGRFTISRDNAMNTVYLQMNSLKPEDTAVYYCAALPWFPDEEYDYWGQGTQVTVSS”, the “polyreactivity (PSR sort gate)” value is listed as “high polyreactivity”.
Then “QVQLVESGGGLVQAGGSLRLSCAASGIILYVYGMGWYRQAPGKERELVATITWSDGGTYYADSVKGRFTISRDNAKNTVYLQMNSLKPEDTAVYYCNVVVVNGWVTTPGYDYWGQGTQVTVSS”, with “low polyreactivity”; and “QVQLVESGGGLVQAGGSLRLSCAASGIILYYNAMGWYRQAPGKERALVAAITTSGVSTYYADSVKGRFTISRDNAKNTVYLQMNSLKPEDTAVYYCNADYLYGRYTYDYWGQGTQVTVSS”, with “low polyreactivity”; and “QVQLVESGGGLVQAGGSLRLSCAASGIILYYYAMGWYRQAPGKERELVAAINWSGGSTSYADSVKGRFTISRDNAKNTVYLQMNSLKPEDTAVYYCAARLGSWHYQVWNDKYEYWGQGTQVTVSS”, with “high polyreactivity”.
Then “QVQLVESGGGLVQAGGSLRLSCAASGIILYYYAMGWYRQAPGKERELVASISRGDSTNYADSVKGRFTISRDNAKNTVYLQMNSLKPEDTAVYCNKDYLPSLYRGFDYWGQGTQVTVSS”, with “low polyreactivity”; and “QVQLVESGGGLVQAGGSLRLSCAASGIIQPRYAMGWYRQAPGKERELVAAISRGGGTYYADSVKGRFTISRDNAKNTVYLQMNSLIPEYSAVYNCASAYVFVGSSHYYWGQGTQVTVSS”, with “high polyreactivity”.
Then “QVQLVESGGGLVQAGGSLRLSCAASGIISSVYAMGWYRQAPGKERELVAAISGSGGSTYYADSVKGRFTISRDNAKNTVYLQMNSLKPEDTAVYYCAIGYQYQGNSYGYWGQGTQVNVSS”, with “low polyreactivity”; and “QVQLVESGGGLVQAGGSLRLSCAASGIISSVYAMGWYRQAPVKERELVAAISGSGGSTYYADSVKGRFTISRDNAKNTVYLQMNSLTPEDTAVYYCAKGYQYQGNSYGYWGQGTQVTVSS”, with “low polyreactivity”.
